According to patent US20110311550A1:

Experiments:
Test in all cases: ELISA, lectin-captured E1E2 lysate, Ab 1 ug/ml
[1] = biological target: E1E2 complex (H77) with E2 mutation T425A (HCV genotype 1a, isolate H77) (UniProt P27958)
[2] = biological target: E1E2 complex (H77) with E1 mutation N209A (HCV genotype 1a, isolate H77) (UniProt P27958)
[3] = biological target: E1E2 complex (H77) with E2 mutation A439G (HCV genotype 1a, isolate H77) (UniProt P27958)
[4] = biological target: E1E2 complex (H77) with E1 mutation S273A (HCV genotype 1a, isolate H77) (UniProt P27958)
[5] = biological target: E1E2 complex (H77) with E2 mutation G634A (HCV genotype 1a, isolate H77) (UniProt P27958)
[6] = biological target: E1E2 complex (H77) with E2 mutation R639A (HCV genotype 1a, isolate H77) (UniProt P27958)
[7] = biological target: E1E2 complex (H77) with E1 mutation G315A (HCV genotype 1a, isolate H77) (UniProt P27958)
[8] = biological target: E1E2 complex (H77) with E1 mutation R296A (HCV genotype 1a, isolate H77) (UniProt P27958)
[9] = biological target: E1E2 complex (H77) with E1 mutation W239A (HCV genotype 1a, isolate H77) (UniProt P27958)
[10] = biological target: E1E2 complex (H77) with E1 mutation H222A (HCV genotype 1a, isolate H77) (UniProt P27958)
[11] = biological target: E1E2 complex (H77) with E1 mutation Q289A (HCV genotype 1a, isolate H77) (UniProt P27958)
[12] = biological target: E1E2 complex (H77) with E2 mutation H638A (HCV genotype 1a, isolate H77) (UniProt P27958)
[13] = biological target: E1E2 complex (H77) with E1 mutation N234A (HCV genotype 1a, isolate H77) (UniProt P27958)
[14] = biological target: E1E2 complex (H77) with E1 mutation R339A (HCV genotype 1a, isolate H77) (UniProt P27958)
[15] = biological target: E1E2 complex (H77) with E1 mutation P295A (HCV genotype 1a, isolate H77) (UniProt P27958)
[16] = biological target: E1E2 complex (H77) with E1 mutation N196A/N325A (HCV genotype 1a, isolate H77) (UniProt P27958)
[17] = biological target: E1E2 complex (H77) with E1 mutation N305A/N325A (HCV genotype 1a, isolate H77) (UniProt P27958)
[18] = biological target: E1E2 complex (H77) with E1 mutation V246A (HCV genotype 1a, isolate H77) (UniProt P27958)
[19] = biological target: E1E2 complex (H77) with E2 mutation G635A (HCV genotype 1a, isolate H77) (UniProt P27958)
[20] = biological target: E1E2 complex (H77) with E1 mutation I212A (HCV genotype 1a, isolate H77) (UniProt P27958)
[21] = biological target: E1E2 complex (H77) with E1 mutation D279A (HCV genotype 1a, isolate H77) (UniProt P27958)
[22] = biological target: E1E2 complex (H77) with E1 mutation S294A (HCV genotype 1a, isolate H77) (UniProt P27958)
[23] = biological target: E1E2 complex (H77) with E1 mutation W353A (HCV genotype 1a, isolate H77) (UniProt P27958)
[24] = biological target: E1E2 complex (H77) with E1 mutation G282A (HCV genotype 1a, isolate H77) (UniProt P27958)
[25] = biological target: E1E2 complex (H77) with E1 mutation N196A/N234A (HCV genotype 1a, isolate H77) (UniProt P27958)
[26] = biological target: E1E2 complex (H77) with E1 mutation L221A (HCV genotype 1a, isolate H77) (UniProt P27958)
[27] = biological target: E1E2 complex (H77) with E1 mutation Q302A (HCV genotype 1a, isolate H77) (UniProt P27958)
[28] = biological target: E1E2 complex (H77) with E1 mutation A274G (HCV genotype 1a, isolate H77) (UniProt P27958)
[29] = biological target: E1E2 complex (H77) with E1 mutation V194A (HCV genotype 1a, isolate H77) (UniProt P27958)

## mouse anti-E1 MAb A4 (antibody)
[1]
  Binding relative to wt (%): 104%
[2]
  Binding relative to wt (%): 119%
[3]
  Binding relative to wt (%): 119%
[4]
  Binding relative to wt (%): 38%
[5]
  Binding relative to wt (%): 112%
[6]
  Binding relative to wt (%): 162%
[7]
  Binding relative to wt (%): 91%
[8]
  Binding relative to wt (%): 108%
[9]
  Binding relative to wt (%): 103%
[10]
  Binding relative to wt (%): 132%
[11]
  Binding relative to wt (%): 49%
[12]
  Binding relative to wt (%): 104%
[13]
  Binding relative to wt (%): 105%
[14]
  Binding relative to wt (%): 87%
[15]
  Binding relative to wt (%): 132%
[16]
  Binding relative to wt (%): 64%
[17]
  Binding relative to wt (%): 114%
[18]
  Binding relative to wt (%): 96%
[19]
  Binding relative to wt (%): 109%
[20]
  Binding relative to wt (%): 125%
[21]
  Binding relative to wt (%): 28%
[22]
  Binding relative to wt (%): 99%
[23]
  Binding relative to wt (%): 75%
[24]
  Binding relative to wt (%): 50%
[25]
  Binding relative to wt (%): 71%
[26]
  Binding relative to wt (%): 104%
[27]
  Binding relative to wt (%): 215%
[28]
  Binding relative to wt (%): 53%
[29]
  Binding relative to wt (%): 160%
